Source: patent US11534461B2, “High affinity merkel cell polyomavirus T antigen-specific TCRS and uses thereof” (priority 2016, dated 2022)
Where “and” joins values, the source holds several entries; their conditions need not be identical. Identical values can stand only once.

T1: Merkel cell polyomavirus T antigen KLL epitope homolog (C-terminal cysteine replaced by alanine) peptide on … (human)
T1 peptide: KLLEIAPNA

T2: Merkel cell polyomavirus T antigen (common to large and small T antigen) peptide on HLA-A*02:01 (human)
T2 peptide: KLLEIAPNC

T3: Merkel cell polyomavirus T antigen (common to large and small T antigen) peptide on HLA-A*02:01 (human)
T3 peptide: KLLEIAPNC


Legend:
[1] = test system: MCC; assay: Clinical trial: avelumab plus MCPyV-specific T cells and HLA-upregulation (NCT02584829); conditions: avelumab in addition to MCPyV-specific T cells and HLA-upregulation
[2] = target: T1, Merkel cell polyomavirus T antigen KLL …; assay: IFN-g ELISA; T2 + peptide titration; T cell clone or line
[3] = target: T2, Merkel cell polyomavirus T antigen …; assay: multimer staining
[4] = target: T3, Merkel cell polyomavirus T antigen …; assay: multimer staining
[5] = target: T3, Merkel cell polyomavirus T antigen …; assay: IFN-g ELISA; COS-7 given HLA-A*02:01 and tLTAg plasmids (antigen processed); T cell clone or line
Protocol: IFN-γ in cell culture supernatants was assayed by ELISA according to manufacturer's recommendations (Human IFN gamma ELISA Ready-SET-Go Kit, affymetrix). […] Supernatants were assayed by ELISA as described above. […] After incubating for 24 hours, wells were transfected using FuGENE HD (Promega) at a 6:1 ratio of transfection reagent to DNA with 25 ng HLA-A*02:01 and limiting dilution of pDEST103-GFP-tLTAg (25-0.08 ng) plus irrelevant DNA (pcDNA-6/myc-His C, Gateway) to a total of 25 ng. 48 hours after transfection, 10^4 viable KLL-specific T cells in TCM were added to target wells in duplicate. […] Transfected COS-7 cells were harvested at 48 and 72 hours post-transfection to quantitate transfection efficiency by flow cytometry.

[6] = target: T3, Merkel cell polyomavirus T antigen …; assay: binding, other

Molecule | EC50 of peptide [2] | binding result [3] | binding result [4] | also measured
avelumab | – | – | – | objective response ([1]; 5 MCC patients): 80%; duration of complete responses [1]: > 1 year; toxicities with the addition of avelumab [1]: no increased toxicities; complete responses (CRs) ([1]; of 5 MCC patients): 3 patients
w876 clonotype 16 (TCR) alpha TRAV38-1*01 TRAJ23*01 CDR3: CAYNQGGKLIF beta TRBV19*01 TRBJ2-1*01 CDR3: CASSTLSGTHNEQFF | 0.12 ng/mL | recognises | recognises | –
w876 clonotype 2 (TCR) alpha TRAV12-1*01 TRAJ45*01 CDR3: CVVTEYSGGGADGLTF beta TRBV10-3*01 TRBJ2-2*01 CDR3: CASRGQNTGELFF | 1.2 ng/mL | recognises | recognises | –
w876 clonotype 13 (TCR) alpha TRAV12-1*01 TRAJ45*01 CDR3: CVVTDTSGGGADGLTF beta TRBV7-2*04 TRBJ2-3*01 CDR3: CASSLAGLAGTDTQYF | – | – | – | EC50 of tLTAg plasmid DNA [5]: 3900 ng/mL
w876 clonotype 21 (TCR) alpha TRAV3*01 TRAJ40*01 CDR3: CAVRDNSGTYKYIF beta TRBV13*02 TRBJ2-1*01 CDR3: CASSSGTSGGLTYNEQFF | – | – | recognises | –
w830 clonotype 4 (TCR) alpha TRAV12-1*01 TRAJ43*01 CDR3: CVLNNNDMRF beta TRBV19*01 TRBJ1-5*01 CDR3: CASSILGASNQPQHF | 1.1 ng/mL | recognises | recognises | –
w876 clonotype 14 (TCR) alpha TRAV12-1*01 TRAJ27*01 CDR3: CVVPSAGKSTF beta TRBV2*03 TRBJ2-5*01 CDR3: CASSEFAGQETQYF | – | – | – | EC50 of tLTAg plasmid DNA [5]: 5400 ng/mL
w678 clonotype 1 (TCR) alpha TRAV12-1*01 TRAJ43*01 CDR3: CVLNNNDMRF beta TRBV10-3*01 TRBJ2-2*01 CDR3: CAIRQFDANTGELFF | 0.43 ng/mL and 0.5 ng/mL and 0.47 ng/mL | – | – | EC50 of tLTAg plasmid DNA [5]: 320 ng/mL
w876 clonotype 18 (TCR) alpha TRAV14 TRAJ13*01 CDR3: CAMREAQSGGYQKVTF beta TRBV12-4*01 TRBJ2-3*01 CDR3: CASSFGSGTKDTQYF | – | recognises | recognises | –
w830 clonotype 2 (TCR) alpha TRAV38-1*01 TRAJ27*01 CDR3: CALTSGSRLTF beta TRBV19*01 TRBJ1-5*01 CDR3: CASSIMLYSNQPQHF | – | – | – | EC50 of tLTAg plasmid DNA [5]: 140000 ng/mL
X389-8 (TCR, V domains shown) Valpha: RKEVEQDPGPFNVPEGATVAFNCTYSNSASQSFFWYRQDCRKEPKLLMSVYSSGNEDGRFTAQLNRASQYISLLIRDSKLSDSATYLCVVTGTGGFKTIFGAGTRLFVKA Vbeta: GEEVAQTPKHLVRGEGQKAKLYCAPIKGHSYVFWYQQVLKNEFKFLISFQNENVFDETGMPKERFSAKCLPNSPCSLEIQATKLEDSAVYFCASSSMSIAAGNTGELFFGEGSRLTVL | – | – | – | binding result [6]: recognises
w876 clonotype 11 (TCR) alpha TRAV12-1*01 TRAJ45*01 CDR3: CVVYTGYSGGGADGLTF beta TRBV10-3*01 TRBJ2-2*01 CDR3: CAIHEGDSNTGELFF | – | recognises | recognises | –
w678 clonotype 3 (TCR) alpha TRAV12-1*01 TRAJ45*01 CDR3: CVVATYSGGGADGLTF beta TRBV19*01 TRBJ2-1*01 CDR3: CASSIIAGSSYNEQFF | 0.022 ng/mL and 0.013 ng/mL | – | – | EC50 of tLTAg plasmid DNA [5]: 1000 ng/mL
w876 clonotype 17 (TCR) alpha TRAV12-1*01 TRAJ37*02 CDR3: CVVYGSSNTGKLIF beta TRBV7-2*04 TRBJ2-1*01 CDR3: CASSLAGLANNEQFF | – | – | recognises | –
w876 clonotype 6 (TCR) alpha TRAV12-1*01 TRAJ3*01 CDR3: CVVPLYSSASKIIF beta TRBV6-1*01 TRBJ1-1*01 CDR3: CASSDTPDLNTEAFF | 0.015 ng/mL and 0.035 ng/mL | recognises | recognises | –
w683 clonotype 2 (TCR) alpha TRAV12-1*01 TRAJ43*01 CDR3: CVLNNNDMRF beta TRBV6-5*01 TRBJ1-2*01 CDR3: CASRSQNYYGYTF | 0.21 ng/mL | recognises | recognises | –
w876 clonotype 12 (TCR) alpha TRAV3*01 TRAJ40*01 CDR3: CAVRDNSGTYKYIF beta TRBV7-2*04 TRBJ2-3*01 CDR3: CASSLAGLAGTDTQYF | – | – | recognises | –
w876 clonotype 27 (TCR) alpha TRAV3*01 TRAJ11*01 CDR3: CALTGYSTLTF beta TRBV19*01 TRBJ2-1*01 CDR3: CASRSQLAVLNEQFF | – | – | recognises | –
w876 clonotype 19 (TCR) alpha TRAV12-1*01 TRAJ45*01 CDR3: CVVYTGYSGGGADGLTF beta TRBV10-2*01 TRBJ2-2*01 CDR3: CASSGQNTGELFF | 0.92 ng/mL | recognises | recognises | –

Molecule | EC50 of peptide [2] | binding result [3] | binding result [4] | also measured
w876 clonotype 4 (TCR) alpha TRAV12-1*01 TRAJ45*01 CDR3: CVVYTGYSGGGADGLTF beta TRBV10-2*01 TRBJ2-2*01 CDR3: CASSVLNTGELFF | 0.31 ng/mL | – | – | EC50 of tLTAg plasmid DNA [5]: 14000 ng/mL
w876 clonotype 1 (TCR) alpha TRAV12-1*01 TRAJ45*01 CDR3: CVVGEYSGGGADGLTF beta TRBV28*01 TRBJ2-1*01 CDR3: CAIRAGASYNEQFF | 0.31 ng/mL | – | – | EC50 of tLTAg plasmid DNA [5]: 5600 ng/mL
w678 clonotype 5 (TCR) alpha TRAV38-1*01 TRAJ43*01 CDR3: CAFRVSHDMRF beta TRBV10-2*01 TRBJ2-3*01 CDR3: CASSSGNPSTDTQYF | 0.11 ng/mL and 0.054 ng/mL | – | recognises | –
w876 clonotype 23 (TCR) alpha TRAV12-3*01 TRAJ57*01 CDR3: CAMSVAQGGSEKLVF beta TRBV6-6*01 TRBJ2-7*01 CDR3: CASSYQIGLSYEQYF | – | – | recognises | –
w876 clonotype 9 (TCR) alpha TRAV12-1*01 TRAJ43*01 CDR3: CVGNNNDMRF beta TRBV10-3*01 TRBJ2-2*01 CDR3: CAISARDQNTGELFF | 0.12 ng/mL and 0.24 ng/mL | recognises | recognises | –
w830 clonotype 5 (TCR) alpha TRAV12-1*01 TRAJ43*01 CDR3: CVVNANDMRF beta TRBV10-3*01 TRBJ2-2*01 CDR3: CAIRARDQNTGELFF | – | recognises | recognises | –
w876 clonotype 3 (TCR) alpha TRAV19*01 TRAJ40*01 CDR3: CALGGGTFTSGTYKYIF beta TRBV9*02 TRBJ2-2*01 CDR3: CASSVEDYTGELFF | 0.12 ng/mL | – | – | EC50 of tLTAg plasmid DNA [5]: 11000 ng/mL
w683 clonotype 1 (TCR) alpha TRAV12-1*01 TRAJ45*01 CDR3: CVVALYSGGGADGLTF beta TRBV6-5*01 TRBJ1-2*01 CDR3: CASRSQNYYGYTF | – | recognises | recognises | –
w876 clonotype 5 (TCR) alpha TRAV38-1*01 TRAJ23*01 CDR3: CAYNQGGKLIF beta TRBV10-2*01 TRBJ2-2*01 CDR3: CASSVLNTGELFF | 0.11 ng/mL | recognises | recognises | –
w876 clonotype 8 (TCR) alpha TRAV12-1*01 TRAJ3*01 CDR3: CVVYASKIIF beta TRBV6-1*01 TRBJ1-1*01 CDR3: CASSDTPDLNTEAFF | – | – | – | EC50 of tLTAg plasmid DNA [5]: 4200 ng/mL
MCC1 (TCR, V domains shown) Valpha: RKEVEQDPGPFNVPEGATVAFNCTYSNSASQSFFWYRQDCRKEPKLLMSVYSSGNEDGRFTAQLNRASQYISLLIRDSKLSDSATYLCVVATYSGGGADGLTFGKGTHLIIQP Vbeta: DAGITQSPRYKITETGRQVTLMCHQTWSHSYMFWYRQDLGHGLRLIYYSAAADITDKGEVPDGYVVSRSKTENFPLTLESATRSQTSVYFCASSSGNPSTDTQYFGPGTRLTVL | 0.0094 ng/mL and 0.028 ng/mL | recognises | recognises | –
w678 clonotype 2 (TCR) alpha TRAV38-1*01 TRAJ43*01 CDR3: CAFRVSHDMRF beta TRBV19*01 TRBJ2-1*01 CDR3: CASSIIAGSSYNEQFF | 0.017 ng/mL and 0.012 ng/mL | – | recognises | –
w830 clonotype 3 (TCR) alpha TRAV38-1*01 TRAJ34*01 CDR3: CAYPSTDKLIF beta TRBV19*01 TRBJ1-5*01 CDR3: CASSILGASNQPQHF | – | – | – | EC50 of tLTAg plasmid DNA [5]: 270000 ng/mL
w876 clonotype 20 (TCR) alpha TRAV10*01 TRAJ45*01 CDR3: CVVSAGINGADGLTF beta TRBV12-4*01 TRBJ2-1*01 CDR3: CASSPWDEQFF | – | – | recognises | –
w876 clonotype 26 (TCR) alpha TRAV12-1*01 TRAJ45*01 CDR3: CVVYTGYSGGGADGLTF beta TRBV13*02 TRBJ2-1*01 CDR3: CASSSGTSGGLNYNEQFF | – | – | recognises | –
w876 clonotype 29 (TCR) alpha TRAV12-1*01 TRAJ3*01 CDR3: CVVPLYSSASKIIF beta TRBV10-2*01 TRBJ2-2*01 CDR3: CASSVLNTGELFF | 0.12 ng/mL and 0.16 ng/mL | – | – | EC50 of tLTAg plasmid DNA [5]: 3300 ng/mL
w876 clonotype 10 (TCR) alpha TRAV12-1*01 TRAJ37*02 CDR3: CVVYGSSNTGKLIF beta TRBV10-3*01 TRBJ2-2*01 CDR3: CAIRRQDQNTGELFF | 0.7 ng/mL | recognises | recognises | –
X389-6 (TCR, V domains shown) Valpha: ILNVEQSPQSLHVQEGDSTNFTCSFPSSNFYALHWYRWETAKSPEALFVMTLNGDEKKKGRISATLNTKEGYSYLYIKGSQPEDSATYLCAWNTDKLIFGTGTRLQVFP Vbeta: DAGVIQSPRHEVTEMGQEVTLRCKPISGHNSLFWYRQTMMRGLELLIYFNNNVPIDDSGMPEDRFSAKMPNASFSTLKIQPSEPRDSAVYFCASSLAGDRSFGPGTRLTVT | – | – | – | binding result [6]: recognises
